The DeepSol protein solubility set

Experiment: soluble on expression in E. coli; label from the status in PepcDB or PDB records

Row | Sequence | soluble on expression in E. coli
1 | MPAGANSRTPATDFVQDYAAKRQAQMERARQLREDRLQQQQQQRQSSPKTSGGGNAYNSSPTYTAVPSASGGGTATAAPTSRQPPPPSLNVPRSRHVTPGHDSADSGSSPGKCGDGCVLYIKEQDFKQATQAGIITPDQARQLWAMLSNQIIRVCSPSAHANAVSVSSLLALSNNSYNSSGWAAGGPQSTGGSEFGASISLESLRTSIAYFKREQQRLQQQGGGGAAGAAHGSNAQGRHPLSSSPPALSNTVGQPLSQSRGLPQRQLQYDGNANSDYCRNDGAANDNEQRALGAPMPLRGSGGSGGGGRGGRPAWNSDVEVRHEDDYDDDRNRHAPSSMSTMNSGAAALKKPRTGRTNTVRPAAKGPAASSSPAAGASGVLGTSAQGRGYGSDNEEAGNNAYMPQQPSSAVPRGAKAGGSGAASRRPPASRPTAPPPSSGAPVNLDDVPVGGGGGGGGGMNDWANAYPPGMVPPTSTGGNDAIAAEAAAAAQEPMQECRTCGRRFRISVVMRHEALCRNQANKPRKVFNMREQRLDGVEGIKEVQRTAARSGGGGGGRGAGGGGGRGGGADAAAGAAKGKLPKWKVQHEQFQAAMRAVRQQKEAGGGFGSGRMAPPPAPIPEEYDDRVPCPHCGRKFAQDVAARHIPKCATTIAKPKGIRPIRR | not soluble
2 | MSLEFLIYSLPEEVLREEMLGNFSVALKLIDDFLKKDLPLLQRERLIYEKERIERLLEDYPFTEKEAMEKMREMFEGFSEGEFQYLMNEGVLDYIVVEGEKRFERRFFHNLAFVRSEYRERLRKDERSEKARRILHERLERLIKGEDPKRYRIRARITLKLKETSSKHRVWLPFPKESLQIESVKLLRTSHKSYYISPNDVPQRTIYFEGEDSTFFVEFEYIVREWVNHVDPERVSEKVAGFEEFLKEEPPHIVFTPKLRWLTQTVVGSEVNPYLKAKRIYDWITLNVRYSYVKPYALYENITDFVVNNLKGDCGFQALLFITMCRIAGVPARWQSGWYINPIFGSPHDWALFYVEPYGWLPADLSFGGARRDNESFRSFYFGNLDGFRMVANDGFMKDFDPKTRFVRSDPTDNQVGEAESEEKRLPFESTIEVISFEEVEGGSHHHHHH | soluble
3 | KKSSMRKELETIQLLWHQQKGQYQLSKETIELINHKCHDLKHQVQAIRAVKDEKERETYLEKIEKSVQIYSAIVRTGNEILDTILTEKSLICENSGIHINCVADGSLLAFMNPVDLYTLFGNALDNAIEAVRKLESKEKRVIDIMLYERQSFLMLQIVNPMCGEVKFEDGLPLTTKAKNGYHGYGMKSMLHTIQKYEGHLTTEVKNGCFYFNVMLPLERDSNKK | not soluble
4 | MTTLKLFDIEHAWGLPRKVSPRFGARLILRGLHLDYLHDRASFVGEFPPAIKQQFVEAFPAMVKQLERLVATGEIDTTEQHCVSIEHAGFTCEADTLGSHGYLYIAIYQTKAKPLTTSNLTITR | not soluble
5 | MGSDKIHHHHHHMWGPPWMPDQDGNMTRESGYFQCTNRNKYSVAVDITTPEGQALIYEIAKTADVVIENYKTGSLAKYGLDYASLSELNPNIVYCSITGFGQDGPRAEEPGYDFIIQGMSGLMSITGEPDDVAGGGAQKVGVAVVDIQTGLYSTIAIQAALIARSHTGRGQYIDMSLLDVQVAALANQGMNYLASGKAPQRMGNQHPSIVPYQTFKAKDKEFIIACGNDKQFKDLCIAIGYPELLENEKFVRNQDRVKYRNELIPLLSEHFLRKTAKEWVDMIHALKVPVGVINSIEDALAEPQIVYRNLVVNIPHRLNENFQTIGSPIKLSDTPVEYHHAPPELGEHTAQILSRFKTAEELAALKEKGIIDGKIA | not soluble
6 | MKEIKVIIAGPRGRMGHEAVLLMERTEHFNLVAAVDYKHGGEKISDLPGMPALHAPIYADLHTCLDEVEADVLLDLTTPEVGKQHVTLAVERGLRSVIGTTGFTEEELTRLTENAKEKAVGTIIAPNFAIGAVLMMKFSQMAAKYFQDVEVIELHHDQKLDAPSGTAVKTVELIRQNRESKQQGHPNEVEQLAGARGANVDGIHIHSVRLPGLIAHQEVMFGGDGQMLTVRHDSFNRASFMSGVKLSIETVMNLDHLVYGLENIID | not soluble
7 | MAHHHHHHMWRQLMCSYSSKEKLGSKIYTQKKITKREKLLGIVKPFVDENCDSAEPYVIAYYLNNPINLATLKSAYEKVGSQVLYKDPYLYVESCSHFNQQNSSAVFFKNGCMVIWSMNKQNRNKFFHFSKQFLHINSESTIDHYDFEELQVENISNKSYVNNSVIYLTSSNYRTTDKIAISFGLLSAVRLNNLEKKIEKKLFYENDQIENLKKKMKSSNLDHLSKQLFTSKITLHNLRYELNIDQDILDVPEALWELEYQKKLFLNILHIFDIKQRVDLLNHRLSWTLDYLNSFLDYVNQKHSSRLERIIIVIVGLELVLGIMQMGNTIGL | not soluble
8 | MVTPVSICNYISLPDDFPARNIAPQVKEVLKDFIDALSTIICDEEWRTSLNTNSATKKIFNNLDNLSYIQRTSFRGNDTLYNEKVQFKLTYPVKNGRHKENIEFQVVINLSPIYLDNFRHDGEINIFCAPNPKPVTMGRVFQTGVERVLFLFMNDFIEQFPMINLGAPIKRAHTPHIEPLPPDHHTAADYLRQFDLLVLNFISRGNFVILPRLWNNSEVHRWFVNKDPNLITAILDITDSELKEDLLQSLMDSLGSNKHVQPEVCICFLSLLAEQESPHFQDLFLFFANMLLHYHQFMNPNESDLNDVLMPASLSDDKIIKHMARRTLKLFVKNETPPKVTHEDLVKNRPRSPVRPPIPATAKTPDLPERH | not soluble
9 | MGSDKIHHHHHHMNKMKIAHLTSAHPRHDIRIFVKECSSLAAAGHEVTLIVADGQGEEIRNGVRIHDVGPKRGGRLARMTGTVKRVYQAALRLRPDVVHFHDPELIPAGVRLKQAGIKVVYDVHEDVPRQILAKHWIPGAVRPLVSGGFETLEDWAARRFDAIVTSTPHIRKRFERLGANALDVCNFPILEELVRDTPWESRRNEVCYIGGISRIRGIEPIVAALPDTSTRLNLAGPWSESDLRAKVTAEPGWARVNDLGVLDRKGVAEVLARSKIGLVTLFPTPNYVDALPIKLFEYMAAGMPVIASDFPVWREIVADAGCGVLVDPQDAAAIAAAINELLGDEERMRKLGESGKRAVLSKYSWAAEADKLVALYASL | not soluble
10 | MKYDLKYLSVPLPEEIQRVKEFGDFASADIAIDFWLTKELPQALKERLIIEKDVIKMMRMNEYPHSFAKADQMMRDTFQDYQTEELIRLKETGLVDWVYIDGEPYFQLRFLANLIKTNAAYVARLREAESNQLEILRKKELKENIEQMQKNGGRKVRTTIKATIQVKKEFERPGERVRVHLPLPKACQQQSEIEILATSPEATYIAAEDAPQRTLCFETILKENQTFTVEYCYVNRMVYQQLEENNVDKMQPSFDLEEQLPHIRFTPYLRNLADEIVGDESNPLKKARLIYDFVTTKIHYSFMREYFTISNISEYAATNLKGDCGVQAILFITLCRIAGIPAKWQSGLYVSTHYTGCHDWAQFYIKPYGWLFADLSFGGGAYRDGDRQRWNHYFGNLDVFRMVANSEIQADFQPAKMQLRADPIDNQRGEFEYENEGLPYACLIVSQERLSMEELPFD | not soluble
11 | GPGSMLTGALRLSSHRVQDFIVTTCDKAFMLSSRTRLDKKTVETILLAGYSRIPVYLNDNRRHILGTLIVQSLVILCFTNPNKPPRAGEYPLLETLRLPASTTLYNSYLAFQKNSSNMAVVYDNCGVMVGLWTLTDLLCTLYNTSPAHEGSNTHRQELMVTLLESMKAMNAARRKAQGNVNSAIESEEFFVGGRKK | not soluble
12 | MGSDKIHHHHHHMEHIQSSIEKILNRPDVAESVRAIHQRVLSHPGVIMFLRTHPEIDQRMIERGMLKLNEYAEQMNGNQIIEKKAVIEGYQPVLHLEKGQIMVAYEKTQALRDRENERALEKKFKSLFLPDEVRDANFSDFDLTTTDRKLALRAASQFLNTVRSKQQVKGLYLHGSFGVGKTYLLAAIGNALKKERVATILVHAPGFVSEAKRRIRSDSFDTFLESFQTVPVLLIDDIGAESISPWVRDELFGIILQYRMMHRLPTLFSSNLSYDELELHFGITNDQGDKLKAMRLMERIRTTTNPVEFLGENRRRY | not soluble
13 | AVVATKVGATVMNANPFTLGHRYLIEQALAQCDHLHLFVVEEEASQFCYQERFALVQHGIADLSNITLHPSSQYIISRATFPDYFLKDSHIVDAAYLELDLRLFRQHIAPALAITHRFIGTEPFCPVTAEYNRKMHYWLQQAVMEADAINVVEIERKKVSNQAISASTVRQLFSERKWQQLLSMVPITTFNFLQKIANEP | not soluble
14 | MSLEEWEKHMQNFIPDMLVTFPLAPRSDEYFYEHIEANDGAVHLRGGFFVGGDEGSASVDFSITDPDGDIIYKKSKSEGLFYFTAKKKGTYSFIVSNHQWLESRMVTFAIGRGNETALMPKHVQTAGEMADTLQNQLRDIQLLLLQQEKENGSSSSVSEEKADATASAASAGGLTDREMKQVIYGACRKVDARNATEIPSCRGIPLTEVHRHWVIEEKERIARMGGTIENGRVNGSLEVTRSFGDISLKRYGVSCVPTVKKFTLDPALDEFVLMGCDGFWNCWTASEALNLASEAWEKEIRSSKVHSRPVDPQNVSKQLVEHVLIDKKSQDNITVLLLKISRKEGHHHHHH | soluble
15 | GMTRTMSFHKNCELCTTAGGEILWQDALCRVVHVENQDYPGFCRVILNRHVKEMSDLRPAERDHLMLVVFAVEEAVREVMRPDKINLASLGNMTPHVHWHVIPRFKRDRHFPNSVWGETKRESLPQALDQGSTTALKKAISVRLDQGEPVFMGM | soluble
16 | MSELYVAECNAAKARLEVETECRRIIADNYEKVLERAKEYSKKLEAPILAKICEVGYFCGAHVVRTNQVTMEMGANYYGECSIHTAEKILDRRVSEMRRQREEGLDSIRMLDDKIKFAQDNFSSVSIDGGPIEIVEKYDEEMEKLFYQNRKNKKMSQNDEQNEKIIEKNKLNGDQDHNDVMNRLEELEKLEQDNDEMEEAPIPKPFEVSNEDLQDLGKLEEVEEVEQDPTDKKLRFGMNERLLAQPGVTQKEMERLLDFLDTCDEESSDEEYDEDEEEGDDDEENLNNSVEELDSDDYASDDNIEKSNNSDQQLKSKKIETQVIKVEEIVEETVTKTTVKRKKSGVRFAQQLENVKTFHQTDTVEIKEEDSVIETKSILRSTEPTPVDRSALEPEQKELAAMSTMTFPGEIVEKNPYECEPSTSRDPAPVITEKKVSKFRASRHRN | not soluble
17 | PKYTKSVLKKGDKTNFPKKGDVVHCWYTGTLQDGTVFDTNIQTSAKKKKNAKPLSFKVGVGKVIRGWDEALLTMSKGEKARLEIEPEWAYGKKGQPDAKIPPNAKLTFEVELVDID | soluble
18 | MGSDKIHHHHHHMIRIANGQGFWGDWLEAPVRLVEQGPLDYLALDYLAEVTMSILQKQKQADPKLGYARDFPPLIARIAEQIRERGVTVIANAGGVNPVACAREVVRLAPGLKVAVVLGDDVYPRLDSFLAKGYEMRDMDTGEPIAAIRDRIQSANAYIGAFPLAEALGTGANVVIAGRSTDTALALAPMVHRFGWGPDAFDRLAAGTIAGHIIECGAQCTGGNCQVDWESIPDMANIGYPIVEAEPDGSFVVTKHPAAGGRVSLDSVKEQLLYELGDPQRYITPDCIADFTSVRLAADGPDRVRVTDIRGGPRPPSLKLSISYANGWKAVGTLVYSWPQALAKARAADRIVRERLRNLGLSFEEIHTEFFGVSACHGALAPPNPDPPEVQLRIGVRGQDKKAVDRFTRELIPLVLNGPPGATGFGEGRPPVREIVAYWSTLVPREEIDTRVEVVE | not soluble
19 | MSYAKEMLDAIEAGQMETAKQLFTQVLAHDDDETQYNLAEELYALGFNGQAKRLYQGLLGRYPDQGDLATALADIAVSDGDTDAALNYLSRIQPGDPAYVQSLVSAADVYQTLGLYEVSEQKLLEAKRLAPDEPVVTFALGEFYFDWGHFAEAISAYNELLAAGTTELAGVNIEARLAASLAQTGQYEDAVAAYEDVGVDALDLNGRFELGGLYLQLDDPAKAITNLQAVIDSDPSYANAYLPLARAYEAQNQPDKALDTVQAGVMVDDTNPTLYALGGKLALSEDNVKLAETYLQKALAIDPEDQGNMLAWSNFLVQEERDQENVDFLDQIDRSGDVDPQIYWNMAKSYDRLENIKKARENYLLAFNRFQDSPDFLHDIIDFFQSTGARAELKAALVRYLKLVPTDDEMQARLDELNAETDLEHHHHHH | soluble
